Test results: the RNAGym collection of RNA variant scans (doi:10.1073/pnas.2313332121)
Variants at the floor of the assay were thinned out.

B1: TPR 5TU (parent)
chain: GGAUCUUCUCGAUCUAACAAAAAAGACAAAUCUGCCACAAAGCUUGAGAGCAUCUUCGGAUGCAGAGGCGGCAGCCUUCGGUGGCGCGAUAGCGCCAACGUUCUCAACUAUGACACGCAAAACGCGUGCUCCGUUGAAUGGAGUUUAUCAUG

Variants of: B1
Experiment: polymerase ribozyme fitness, log enrichment relative to wild type (log ratio); higher = more active; in vitro selection for triplet polymerase activity
How it was run: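 A heterodimeric triplet polymerase ribozyme had each of its subunits mutagenized by PCR into a library, which was transcribed. One round of in vitro selection, done in triplicate, annealed each library with a biotinylated primer, its partner subunit and triplets, then incubated it frozen at −7 °C before gel excision of extended constructs, streptavidin-bead capture and RT-PCR. Fitness is the logarithm of genotype enrichment relative to wild-type enrichment, based on Illumina sequencing of inputs and outputs and inverse-variance-weighted replicate averages. A base-2 logarithm is used, and genotypes were kept only with ≥10 input reads and ≥1 read per output.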

| Variant | polymerase ribozyme fitness (log ratio) |
| --- | --- |
| A20U G62C C63U C95U A122G G143A | -4.12 |
| A20U G84U C108U | ≤ -4.2 |
| A20U C43A C69U A138G | ≤ -4.2 |
| A20U U53G C72G C95G C108U C118A | ≤ -4.2 |
| A21G A52G C85U U104G | -0.132 |
| A21C C54A C95U C114G G136U | ≤ -4.2 |
| A21C C54A | 0.0369 |
| A21C C54U | -0.0517 |
| A22C A37U G48C C87U G124A U134C | -4.18 |
| A20G C38U G88C C96A | ≤ -4.2 |
| A21U A22U G46A G48C U56A G70C G83U G124A | ≤ -4.2 |
| A21C C57A C93G C99G C118U U139A U144A A150C | ≤ -4.2 |
| A21G G74A A89U G92U | -3.57 |
| A20U C35G A49C G94A G100C A119U A120G U134C | ≤ -4.2 |
| A22G A41G C51A C76A G94U A97U G141A | ≤ -4.2 |
| A20U A37G A120C A142C | ≤ -4.2 |
| A21U A28C G34U A39G | ≤ -4.2 |
| A20U G46U A98G C99U | -3.31 |
| A22G C35A A107C | ≤ -4.2 |
| A21G G50C A66C U82C G86C C114G A120C A150G | ≤ -4.2 |
| A21G G84A A137C | -3.28 |
| A21C A91C U127C | ≤ -4.2 |
| A21U A29C A89C U130C G140U G141A | ≤ -4.2 |
| A20U A49G | -1.2 |

| Variant | polymerase ribozyme fitness (log ratio) |
| --- | --- |
| A20U A29G C43U C75U U77G G94C U109G A113U | ≤ -4.2 |
| A21C C43A U45G G48C A73G G86U C96G A97C G140U | ≤ -4.2 |
| A21G G59C U102G G124A | -3.04 |
| A21C G59C A98G C125G G136A U146G | -1.19 |
| A21C G83U C116G | -0.153 |
| A21U U45C C85A | -3.36 |
| A21G U55G C79G G94A C99A | ≤ -4.2 |
| A21U U33A A39G C87U G136C | ≤ -4.2 |
| A21U C108U | -3.78 |
| A21C A41U C85U C95U | -1.34 |
| A20G U82A C96G | 0.0125 |
| A20U U77G C96U C99U | ≤ -4.2 |
| A21U C116U | 0.00754 |
| A20U A22U G67C C79U C99G C118U | ≤ -4.2 |
| A21C A23G C51G U55A U101A | ≤ -4.2 |
| A21U C87A G117C A137C A142U | ≤ -4.2 |
| A20G C63U C96A G143C | -3.2 |
| A22C G83U A115G | -1.96 |
| A22G A47C U55A U61A G92C A142U | ≤ -4.2 |
| A22C A60U A66U C93U G100C A138G C149A | ≤ -4.2 |
| A20G C32U G84U C93G | -4.2 |
| A21C C57A A91G C99U G140C | ≤ -4.2 |
| A21G A24U G50A C57A C87G C93G A110U A121U | -4.06 |
| A20U G62C G71A G117U U135G | ≤ -4.2 |

| Variant | polymerase ribozyme fitness (log ratio) |
| --- | --- |
| A20U C57G G88U A89U | ≤ -4.2 |
| A21U C35U U56A C96A A142U | -2.21 |
| A21U U53A A73C C76A G88A C114U U134A | ≤ -4.2 |
| A22C A39U U139A | ≤ -4.2 |
| A21C G58A C93U U102G C131G | ≤ -4.2 |
| A21C G136A | 0.615 |
| A20G G83U A89G C99U G141A U146A | ≤ -4.2 |
| A20U A40C G59A U77C U101C C108A U146G | ≤ -4.2 |
| A20U A91U A115U | -4.17 |
| A21U C57A A107C U139C A147C | ≤ -4.2 |
| A20U G58A G81A | -0.836 |
| A22G C35G U44C U77G C87A C93G U111G | ≤ -4.2 |
| A21U A30U U33A C54G C87G | ≤ -4.2 |
| A21U C32U A52G C85A | -4.08 |
| A21U G83A | -1.45 |
| A20U G34C C96G | ≤ -4.2 |
| A21U A29C A30U C32A G86A C99U C118U U134A U145C C149G | ≤ -4.2 |
| A20G G83U | -0.993 |
| A22G C54U C85U C103U C132U A147C | -3.75 |
| A21C C57G C75A A98G A107U C123U A142U G143C | ≤ -4.2 |
| A21U A73G C79G G84U C149G | ≤ -4.2 |
| A21G C54U C96G C129A | -3.17 |
| A22G A30U G65C G136A | ≤ -4.2 |
| A21G A49C G84A G92U A97U A138G | ≤ -4.2 |

| Variant | polymerase ribozyme fitness (log ratio) |
| --- | --- |
| A20U G141C | -1.4 |
| A21G A49C C93G C96U | ≤ -4.2 |
| A22G C32U C103G A147G G152A | ≤ -4.2 |
| A21C A52C C57U A64C A66C G71U A91U G100A C103U U127G | ≤ -4.2 |
| A21G C36G U53C | -3.97 |
| A21U G84A | 0.266 |
| A21C A40C U45A A73G G83U C96A | ≤ -4.2 |
| A21U A26C A52C C54U G62A G68A G83C U139G | ≤ -4.2 |
| A21U C87A | -3.82 |
| A21C A52G C125A A142U | ≤ -4.2 |
| A21C G50C | -1.92 |
| A20G G81C C93U C103A G152A | -3.74 |
| A20G G67U | -2.82 |
| A21U U56A | -0.173 |
| A22C C38U G83C A122G G141U | 0.178 |
| A21C C85U U102G C118U U144G U151A | ≤ -4.2 |
| A21U U135C | -1.61 |
| A21G C69G U82A C87U | -1.28 |
| A22G G48C G59A G83A | -4.06 |
| A20U C85A G94C A121C | -0.745 |
| A21G C54A | -0.617 |
| A21U U33G U61C G62A A66C C72A G80C C85U A107G | ≤ -4.2 |
| A21C C85G C114U | -3.13 |
| A22C C85G | -2.43 |

| Variant | polymerase ribozyme fitness (log ratio) |
| --- | --- |
| A22C G84U A91U A107C G136C | ≤ -4.2 |
| A20U C87U G88C U101A U146G | ≤ -4.2 |
| A20U C51U C79A C93A A97U U148G | ≤ -4.2 |
| A21C C27U C35U G68A C96A A147G | ≤ -4.2 |
| A20U U31C C116U A121U A150C | -3.57 |
| A21U C27G C36A G117C | -4.02 |
| A21U A24G U61A G81U | ≤ -4.2 |
| A20U C69A | -2.18 |
| A20U C93G A121U A142U | ≤ -4.2 |
| A22C C96U | -0.0389 |
| A21G U31G C38U A73C C87A C96U | ≤ -4.2 |
| A22C A98G | -0.486 |
| A20U C32U U77G A142U | ≤ -4.2 |
| A21U U33C G42A U45G U53A U90A C96U C114G | -3.87 |
| A22C G42U A47G C76G A91G A106U A110G | ≤ -4.2 |
| A20U G92U U104G | -1.82 |
| A20G U55A G59U C76U C96A | -1.18 |
| A20U A52C C93U | -3.12 |
| A21C C87A | -4.15 |
| A21U G50C U53A | -3.62 |
| A21C C125A | 0.331 |
| A21C C27G A64C C85A | ≤ -4.2 |
| A21C U31A A49C U61A C93U G133C | ≤ -4.2 |
| A22G C87U | -0.258 |

| Variant | polymerase ribozyme fitness (log ratio) |
| --- | --- |
| A21U C54A A142G | -2.81 |
| A20U C93U | -1.76 |
| A21G A26G C38G C72U C87G A89U A150G | ≤ -4.2 |
| A20G G126A G136A | 0.15 |
| A22C A40U G81U C93A C99U C116A | -3.08 |
| A22G C85U C114A U139G | -3.14 |
| A22G C95U A119G | 0.832 |
| A21U G50A C63U C75U A97U | -1.25 |
| A21C A47C C96A G133C | -1.54 |
| A20G G71A C96A | ≤ -4.2 |
| A22C A60C G62U | -2.13 |
| A21C C87A G141C | ≤ -4.2 |
| A21C A30U U33G A60U C85A | ≤ -4.2 |
| A21G C27G A29C A73C G74U C75G C85U G88A | ≤ -4.2 |
| A21C A39U C95G A113U C149U A150G | ≤ -4.2 |
| A20U G84A G124A A147G | -2.53 |
| A22C A24U C54A U77A G84U | ≤ -4.2 |
| A21G U56A G67C U77G G88A C99A U109G | ≤ -4.2 |
| A21U C57A | 0.469 |
| A20U U55G C96U U134G U144G | -3.67 |
| A21U C38U U135C | -3.08 |
| A22C G65C G80U A91G | ≤ -4.2 |
| A21G C57U C93U G136C | -4.04 |
| A20U A22C C87A G88C A98U A107G | ≤ -4.2 |

| Variant | polymerase ribozyme fitness (log ratio) |
| --- | --- |
| A20U A30U A39U G62A G68A G140U | ≤ -4.2 |
| A22G G48A G62C G94A C116U | ≤ -4.2 |
| A21U G92C | 0.0736 |
| A21C U53A C69U C125U | -3.94 |
| A20U G94A G112A | -3.86 |
| A21G C75U A120G | 0.879 |
| A20U A52G U53A U55A C69A A110G U146G | ≤ -4.2 |
| A21U C38G G84A G136C | -3.78 |
| A21U U33G G59C C72G A89C C96A A115C U146C | ≤ -4.2 |
| A21C G94A U148A | -3.72 |
| A21C C35A C87U | -3.56 |
| A22G | 0.56 |
| A22C | -0.18 |
| A21G A52G C87U U90G A106G A107G | ≤ -4.2 |
| A22G C32G A40C G84A | -4.13 |
| A20G C54U A107U A120G | -3.56 |
| A21G A30G C125U G133C | ≤ -4.2 |
| A21C A41C C51U C85A | -3.05 |
| A22G A37C G50C A64G G65C G88A A110G | ≤ -4.2 |
| A20G U148C | -1.93 |
| A21G G94A A97G A137G | -2.22 |
| A21C A24G A28G A29U G71C G83A G124U | ≤ -4.2 |
| A20U G25C G50C C118U | ≤ -4.2 |
